Source: patent publication US20140087995A1 (published 2014)
Numbered stars: 1 amine (or outer) side, 2 acyl side, 3 side chain; on linkers, the order of the positions; unused ones are H or OH. Bridge positions count the residues as written; N and C are the ends. Side chains are listed from the residue outwards. Ends that are not written are not given here. * marks the point of attachment. C20 diacid = O=C(O)CCCCCCCCCCCCCCCCCCC(=O)*; γGlu = O=C(O)[C@H](CCC(=O)[*:2])N[*:1]; AEEA = NCCOCCOCC(=O)O

T1: human calcitonin receptor (human, UniProt P30988 25-474)
T1 construct: whole, on cells; also called hCTR; hCT
T1 sequence (looked up): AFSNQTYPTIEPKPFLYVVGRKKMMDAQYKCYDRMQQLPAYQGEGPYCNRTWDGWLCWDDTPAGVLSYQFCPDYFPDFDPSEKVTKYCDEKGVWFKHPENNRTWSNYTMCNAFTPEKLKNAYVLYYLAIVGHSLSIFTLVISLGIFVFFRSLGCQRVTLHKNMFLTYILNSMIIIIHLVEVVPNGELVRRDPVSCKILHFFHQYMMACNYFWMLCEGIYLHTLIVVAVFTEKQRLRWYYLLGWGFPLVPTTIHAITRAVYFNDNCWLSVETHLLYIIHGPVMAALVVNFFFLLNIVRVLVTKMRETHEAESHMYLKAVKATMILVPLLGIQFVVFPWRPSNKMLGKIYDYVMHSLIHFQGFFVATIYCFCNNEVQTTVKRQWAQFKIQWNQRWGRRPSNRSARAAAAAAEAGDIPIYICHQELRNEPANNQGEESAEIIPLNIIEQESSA


How the values were obtained:
[1] = biological target: T1, human calcitonin receptor; test: SPA radioligand competition (125I-calcitonin), membranes of BHK cells with human calcitonin receptor
Protocol: Membranes were prepared in the following way; the cells were rinsed with PBS and incubated with Versene for approximately 5 min before harvesting. The cells were flushed with PBS and the cell-suspension was centrifuged for 5 min at 1000 rpm. Cells were homogenized (Ultrathurrax) in a buffer containing 20 mM Na-HEPES and 10 mM EDTA (pH 7.4) and centrifuged at 20.000 rpm for 15 min. The resulting pellet was resuspended, homogenized and centrifuged (20.000 rpm, 15 min) in a buffer containing 20 mM Na-HEPES and 0.1 mM EDTA (pH 7.4, buffer 2). The resulting pellet was resuspended in buffer 2 and protein concentration was measured (BCA protein Assay, Pierce). The homogenate was kept cold during the whole procedure. The membranes were kept at −80° C. until use. Assay was performed in a 384 well Optiplate (PerkinElmer) in a total volume of 40 ul. Membranes were mixed with SPA beads. Final concentration of membranes 35 ng/μL final and Final concentration of SPA beads was 0.05 mg/well. Test-compounds were dissolved in DMSO and further diluted in assay buffer (50 mM Hepes, pH 7.4, 1 mM CaCl2, 5 mM MgCl₂, 0.1% OA and 0.02% Tween20). […] The final mixture was incubated for 120 min with shaking at 400 rpm at 25° C. prior to centrifugation (1500 rpm, 10 min). Samples were analyzed on TopCounter™ (Packard). The […] was calculated using (one site binding competition analysis) GraphPad Prism5 as a measure of receptor affinity.

[2] = biological target: T1, human calcitonin receptor; test: ratio of IC50 at human calcitonin receptor to IC50 at human amylin receptor (SPA competition assays)
Protocol: The resulting pellet was resuspended, homogenized and centrifuged (20.000 rpm, 15 min) in a buffer containing 20 mM Na-HEPES and 0.1 mM EDTA (pH 7.4, buffer 2). The resulting pellet was resuspended in buffer 2 and protein concentration was measured (BCA protein Assay, Pierce). The homogenate was kept cold during the whole procedure. The membranes were kept at −80° C. until use. The assay was performed in a 384 well Optiplate (PerkinElmer) in a total volume of 40 ul. Membranes were mixed with SPA beads. Final concentration of membranes 35 ng/μL final and SPA beads was 0.05 mg/well. Test-compounds were dissolved in DMSO and further diluted in assay buffer (50 mM Hepes, pH 7.4, 1 mM CaCl2, 5 mM MgCl₂, 0.1% OA and 0.02% Tween20). […] The final mixture was incubated with shaking at 400 rpm for 120 min at 25° C. prior to centrifugation (1500 rpm, 10 min). Samples were analyzed on TopCounter™ (Packard). The IC₅₀ was calculated using (one site binding competition analysis) GraphPad Prism5 as a measure of receptor affinity.
Membranes were prepared in the following way; the cells were rinsed with PBS and incubated with Versene for approximately 5 min before harvesting. The cells were flushed with PBS and the cell-suspension was centrifuged for 5 min at 1000 rpm. Cells were homogenized (Ultrathurrax) in a buffer containing 20 mM Na-HEPES and 10 mM EDTA (pH 7.4) and centrifuged at 20.000 rpm for 15 min. The resulting pellet was resuspended, homogenized and centrifuged (20.000 rpm, 15 min) in a buffer containing 20 mM Na-HEPES and 0.1 mM EDTA (pH 7.4, buffer 2). The resulting pellet was resuspended in buffer 2 and protein concentration was measured (BCA protein Assay, Pierce). The homogenate was kept cold during the whole procedure. The membranes were kept at −80° C. until use. Assay was performed in a 384 well Optiplate (PerkinElmer) in a total volume of 40 ul. Membranes were mixed with SPA beads.

IC50 [1] | Ratio hCT/hAmylin binding [2] | Binder
6.74 nM | 74.1 | K([AEEA-AEEA-γGlu-C20 diacid])CNTATCATQRLANFLRHSSPNFGAIPSSTNVGPNTY-NH2 (disulfide 2-7; N-terminus assumed; SMILES CC[C@H](C)[C@H](NC(=O)[C@H](C)NC(=O)CNC(=O)[C@H](Cc1ccccc1)NC(=O)[C@H](CC(N)=O)NC(=O)[C@@H]1CCCN1C(=O)[C@H](CO)NC(=O)[C@H](CO)NC(=O)[C@H](Cc1c[nH]cn1)NC(=O)[C@H](CCCNC(=N)N)NC(=O)[C@H](CC(C)C)NC(=O)[C@H](Cc1ccccc1)NC(=O)[C@H](CC(N)=O)NC(=O)[C@H](C)NC(=O)[C@H](CC(C)C)NC(=O)[C@H](CCCNC(=N)N)NC(=O)[C@H](CCC(N)=O)NC(=O)[C@@H](NC(=O)[C@H](C)NC(=O)[C@@H]1CSSC[C@H](NC(=O)[C@@H](N)CCCCNC(=O)COCCOCCNC(=O)COCCOCCNC(=O)CC[C@H](NC(=O)CCCCCCCCCCCCCCCCCCC(=O)O)C(=O)O)C(=O)N[C@@H](CC(N)=O)C(=O)N[C@@H]([C@@H](C)O)C(=O)N[C@@H](C)C(=O)N[C@@H]([C@@H](C)O)C(=O)N1)[C@@H](C)O)C(=O)N1CCC[C@H]1C(=O)N[C@@H](CO)C(=O)N[C@@H](CO)C(=O)N[C@H](C(=O)N[C@@H](CC(N)=O)C(=O)N[C@H](C(=O)NCC(=O)N1CCC[C@H]1C(=O)N[C@@H](CC(N)=O)C(=O)N[C@H](C(=O)N[C@@H](Cc1ccc(O)cc1)C(N)=O)[C@@H](C)O)C(C)C)[C@@H](C)O, also called compound 98)
36.5 nM | 60.7 | K([AEEA-γGlu-C20 diacid])CNTATCATQRLANFLRHSSPNFGAIPSSTNVGRNTY-NH2 (disulfide 2-7; N-terminus assumed; SMILES CC[C@H](C)[C@H](NC(=O)[C@H](C)NC(=O)CNC(=O)[C@H](Cc1ccccc1)NC(=O)[C@H](CC(N)=O)NC(=O)[C@@H]1CCCN1C(=O)[C@H](CO)NC(=O)[C@H](CO)NC(=O)[C@H](Cc1c[nH]cn1)NC(=O)[C@H](CCCNC(=N)N)NC(=O)[C@H](CC(C)C)NC(=O)[C@H](Cc1ccccc1)NC(=O)[C@H](CC(N)=O)NC(=O)[C@H](C)NC(=O)[C@H](CC(C)C)NC(=O)[C@H](CCCNC(=N)N)NC(=O)[C@H](CCC(N)=O)NC(=O)[C@@H](NC(=O)[C@H](C)NC(=O)[C@@H]1CSSC[C@H](NC(=O)[C@@H](N)CCCCNC(=O)COCCOCCNC(=O)CC[C@H](NC(=O)CCCCCCCCCCCCCCCCCCC(=O)O)C(=O)O)C(=O)N[C@@H](CC(N)=O)C(=O)N[C@@H]([C@@H](C)O)C(=O)N[C@@H](C)C(=O)N[C@@H]([C@@H](C)O)C(=O)N1)[C@@H](C)O)C(=O)N1CCC[C@H]1C(=O)N[C@@H](CO)C(=O)N[C@@H](CO)C(=O)N[C@H](C(=O)N[C@@H](CC(N)=O)C(=O)N[C@H](C(=O)NCC(=O)N[C@@H](CCCNC(=N)N)C(=O)N[C@@H](CC(N)=O)C(=O)N[C@H](C(=O)N[C@@H](Cc1ccc(O)cc1)C(N)=O)[C@@H](C)O)C(C)C)[C@@H](C)O, also called compound 78)
88.8 nM | 140 | K([AEEA-γGlu-C20 diacid])CNTATCATQRLARFLRHSSPNFGAIPSSTNVGSNTY-NH2 (disulfide 2-7; N-terminus assumed; SMILES CC[C@H](C)[C@H](NC(=O)[C@H](C)NC(=O)CNC(=O)[C@H](Cc1ccccc1)NC(=O)[C@H](CC(N)=O)NC(=O)[C@@H]1CCCN1C(=O)[C@H](CO)NC(=O)[C@H](CO)NC(=O)[C@H](Cc1c[nH]cn1)NC(=O)[C@H](CCCNC(=N)N)NC(=O)[C@H](CC(C)C)NC(=O)[C@H](Cc1ccccc1)NC(=O)[C@H](CCCNC(=N)N)NC(=O)[C@H](C)NC(=O)[C@H](CC(C)C)NC(=O)[C@H](CCCNC(=N)N)NC(=O)[C@H](CCC(N)=O)NC(=O)[C@@H](NC(=O)[C@H](C)NC(=O)[C@@H]1CSSC[C@H](NC(=O)[C@@H](N)CCCCNC(=O)COCCOCCNC(=O)CC[C@H](NC(=O)CCCCCCCCCCCCCCCCCCC(=O)O)C(=O)O)C(=O)N[C@@H](CC(N)=O)C(=O)N[C@@H]([C@@H](C)O)C(=O)N[C@@H](C)C(=O)N[C@@H]([C@@H](C)O)C(=O)N1)[C@@H](C)O)C(=O)N1CCC[C@H]1C(=O)N[C@@H](CO)C(=O)N[C@@H](CO)C(=O)N[C@H](C(=O)N[C@@H](CC(N)=O)C(=O)N[C@H](C(=O)NCC(=O)N[C@@H](CO)C(=O)N[C@@H](CC(N)=O)C(=O)N[C@H](C(=O)N[C@@H](Cc1ccc(O)cc1)C(N)=O)[C@@H](C)O)C(C)C)[C@@H](C)O, also called compound 82)
42.4 nM | 247 | K([AEEA-γGlu-C20 diacid])CNTATCATQRLAAFLRHSSPNFGAIPSSTPVGSNTY-NH2 (disulfide 2-7; N-terminus assumed; SMILES CC[C@H](C)[C@H](NC(=O)[C@H](C)NC(=O)CNC(=O)[C@H](Cc1ccccc1)NC(=O)[C@H](CC(N)=O)NC(=O)[C@@H]1CCCN1C(=O)[C@H](CO)NC(=O)[C@H](CO)NC(=O)[C@H](Cc1c[nH]cn1)NC(=O)[C@H](CCCNC(=N)N)NC(=O)[C@H](CC(C)C)NC(=O)[C@H](Cc1ccccc1)NC(=O)[C@H](C)NC(=O)[C@H](C)NC(=O)[C@H](CC(C)C)NC(=O)[C@H](CCCNC(=N)N)NC(=O)[C@H](CCC(N)=O)NC(=O)[C@@H](NC(=O)[C@H](C)NC(=O)[C@@H]1CSSC[C@H](NC(=O)[C@@H](N)CCCCNC(=O)COCCOCCNC(=O)CC[C@H](NC(=O)CCCCCCCCCCCCCCCCCCC(=O)O)C(=O)O)C(=O)N[C@@H](CC(N)=O)C(=O)N[C@@H]([C@@H](C)O)C(=O)N[C@@H](C)C(=O)N[C@@H]([C@@H](C)O)C(=O)N1)[C@@H](C)O)C(=O)N1CCC[C@H]1C(=O)N[C@@H](CO)C(=O)N[C@@H](CO)C(=O)N[C@H](C(=O)N1CCC[C@H]1C(=O)N[C@H](C(=O)NCC(=O)N[C@@H](CO)C(=O)N[C@@H](CC(N)=O)C(=O)N[C@H](C(=O)N[C@@H](Cc1ccc(O)cc1)C(N)=O)[C@@H](C)O)C(C)C)[C@@H](C)O, also called compound 72)
